Measurements as given in patent publication US20250289893A1 (OXFORD UNIVERSITY INNOVATION, published 2025).
Where a chain is given by its changes, count along the chain named.

T1: Cynomolgus monkey CD1a protein (Cynomolgus monkey)
T1 chain: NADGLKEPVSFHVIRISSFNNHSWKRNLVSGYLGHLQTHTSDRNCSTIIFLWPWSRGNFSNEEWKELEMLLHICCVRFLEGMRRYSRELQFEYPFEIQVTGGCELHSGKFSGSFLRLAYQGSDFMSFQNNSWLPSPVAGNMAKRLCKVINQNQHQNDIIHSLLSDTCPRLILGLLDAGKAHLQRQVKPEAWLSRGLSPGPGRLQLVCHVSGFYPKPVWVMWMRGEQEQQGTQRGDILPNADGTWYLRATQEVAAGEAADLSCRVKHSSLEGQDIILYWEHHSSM

B1: 110 (VR12112) (antibody, V domains shown)
VH: QSVEESGGRLVTPGTPLTLTCTVSGFSLSSYAMIWVRQAPGKGLEWIGIINSSDNTHYATWAKGRFTISKTSTTVDLKITSPTTEDTATYFCARDPYDYGYGWYFDLWGPGTLVTVSS
VL: AQVLTQTPSPVSAAVGGTVTINCQASQSVFNNKNLAWYQQKPGQPPKLLIYKASTLASGVSSRFKGSGSGTQFALTISGVQCDDAATYYCQGEFSCSSTDCVTFGGGTEVVVK
notes: also called OX110; antibody 110
B2: 77A (VR11851) (antibody, V domains shown)
VH: QSVEESGGRLVTPGTPLTLTCTVSGFSLSSYAMSWVRQAPGKGLEWIGIISSSGTTYYASWAKGRFTISKTSTTVDLKITSPTTEDTATYFCARVDYYSSGWGGLWGPGTLVTVSS
VL: AVEMTQTPASMSAAVGGTVTIKCQASEDIYSNLAWYQQKPGQPPKLLIYGASTLASGVPSRFKGSGSGTEYTLTISGVQCDDAATYYCQCTYDTSSYGNTFGGGTEMVVE
notes: also called OX77a; antibody 77a
B3: 111 (VR12113) (antibody, V domains shown)
VH: QSVEESGGRLVTPGTPLTLTCTASGFSLSTYAMSWVRQAPGKGLEWIGIISSSGSTYYASWAKGRFTISKTSTTVDLKITSPTTEDTATYFCARETWYWLDLWGQGTLVTVSS
VL: B2 VL with M11V, K22N, T91A, T94S, N99T, T100P, M107V, E110K
notes: also called OX111

Columns and labels:
[1] = biological target: Chinese variant CD1a protein (human) (UniProt P06126); assay: ELISA, 1 µg/ml antibody
Sequence of Chinese variant CD1a protein (human) (P06126 18-295, change not shown): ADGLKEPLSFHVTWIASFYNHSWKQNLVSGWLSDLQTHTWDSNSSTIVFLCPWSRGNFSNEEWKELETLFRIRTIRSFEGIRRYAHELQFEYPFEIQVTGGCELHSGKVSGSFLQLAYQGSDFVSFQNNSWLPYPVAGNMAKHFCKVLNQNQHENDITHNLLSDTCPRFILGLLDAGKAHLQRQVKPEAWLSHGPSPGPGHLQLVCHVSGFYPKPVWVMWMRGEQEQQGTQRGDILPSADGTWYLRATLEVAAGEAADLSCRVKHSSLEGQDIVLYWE

[2] = biological target: T1, Cynomolgus monkey CD1a protein; assay: ELISA, 1 µg/ml antibody
[3] = biological target: T2, chimeric CD1a pool B protein [human CD1a lipid binding domain, mouse CD1d Ig domain] (human; mouse, UniProt P06126 18-201; P11609 205-297, limits assumed); assay: ELISA, 100 µg/ml antibody
T2 sequence (P06126 other isoform, or with tags, fused parts or gaps mutant limits assumed): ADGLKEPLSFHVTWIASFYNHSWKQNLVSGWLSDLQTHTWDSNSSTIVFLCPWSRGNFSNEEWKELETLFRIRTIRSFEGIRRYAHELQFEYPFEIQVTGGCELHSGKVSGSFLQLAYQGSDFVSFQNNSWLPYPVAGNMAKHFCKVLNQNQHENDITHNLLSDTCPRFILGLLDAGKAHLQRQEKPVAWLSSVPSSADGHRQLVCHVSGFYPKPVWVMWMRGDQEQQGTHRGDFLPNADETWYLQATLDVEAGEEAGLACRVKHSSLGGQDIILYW
Method: (§1) CD1a-specific antibodies were identified by ELISA. […] 20 μl/well of peroxidase-conjugated goat anti-species IgG Fc-specific F(ab′)2 fragment (Jackson ImmunoResearch), diluted 1:5000 in block buffer was added and incubated at room temperature for 1 hour, followed by washing with wash buffer.
(§2) The antibodies were titrated through a dilution series and compared to a control rabbit IgG antibody. […] Data shown for purified antibodies.

[4] = biological target: T2, chimeric CD1a pool B protein [human …; assay: ELISA, 31.6 µg/ml antibody
Method: as §1, §2

[5] = biological target: T2, chimeric CD1a pool B protein [human …; assay: ELISA, 0.316 µg/ml antibody
Method: as §1, §2

[6] = biological target: T3, human CD1a protein (pool B) (human, UniProt P06126 18-295, limits assumed); assay: ELISA, 0.0316 µg/ml antibody
T3 construct: Recombinant protein of the ELISA (coated) and the Biacore T200 titration; whole entry named; also called human CD1a pool B; full length CD1a
T3 sequence (P06126 18-295 limits assumed): as the sequence (P06126 18-295, change not shown) above
Method: as §1
(§3) The antibodies were titrated through a dilution series and compared to a control rabbit IgG antibody.

[7] = biological target: T4, human CD1a expressed on cells (human, UniProt P06126 17-327; P61769 21-119); assay: flow cytometry, C1R cells, 10 µg/ml antibody
T4 construct: also called HEK - CD1a; C1R - CD1a
Method: (§4) Binding to proteins expressed on HEK, C1R and MOLT4 cell lines was assessed. […] The C1R-CD1a, C1R-empty vector and MOLT4 cell lines were washed in 1×PBS on the day required. All cell lines were counted and resuspended in 1×PBS and then stained for 30 minutes at 37° C. using the DiI or DiO cellular stains (Invitrogen). Cells were washed with flow cytometry buffer (1% bovine serum albumin, 2 mM EDTA and 0.1% sodium azide in PBS) before mixing 2 DiI-stained and DiO-stained populations together. The cells (20 μl/well) were then added to dilutions of antibody sample (B cell culture supernatant, TAP supernatant, clone supernatant, purified antibody solution) (20 μl/well) and incubated for 1 hour at 4° C. in a flow cytometry assay plate, before being washed with flow cytometry buffer. 10 μl/well of Alexafluor647-conjugated goat anti-species IgG Fc-specific F(ab′)2 fragment (Jackson ImmunoResearch), diluted 1:2500 in flow cytometry buffer, was added and incubated at 4° C. for 30 minutes, followed by washing with wash buffer. The fluorescence intensity was then measured on an iQue screener PLUS.
(§5) Binding was quantified as fold change in fluorescence intensity geomean over background assessed by flow cytometry.

[8] = biological target: T4, human CD1a expressed on cells; assay: flow cytometry, C1R cells, 100 µg/ml antibody
Method: as §4, §5

[9] = biological target: T4, human CD1a expressed on cells; assay: flow cytometry, MOLT4 cells, 1 µg/ml antibody
Method: (§6) CD1a-specific antibodies were identified by flow cytometry. Binding to proteins expressed on HEK, C1R and MOLT4 cell lines was assessed. […] The C1R-CD1a, C1R-empty vector and MOLT4 cell lines were washed in 1×PBS on the day required. All cell lines were counted and resuspended in 1×PBS and then stained for 30 minutes at 37° C. using the DiI or DiO cellular stains (Invitrogen). Cells were washed with flow cytometry buffer (1% bovine serum albumin, 2 mM EDTA and 0.1% sodium azide in PBS) before mixing 2 DiI-stained and DiO-stained populations together. The cells (20 μl/well) were then added to dilutions of antibody sample (B cell culture supernatant, TAP supernatant, clone supernatant, purified antibody solution) (20 μl/well) and incubated for 1 hour at 4° C. in a flow cytometry assay plate, before being washed with flow cytometry buffer. 10 μl/well of Alexafluor647-conjugated goat anti-species IgG Fc-specific F(ab′)2 fragment (Jackson ImmunoResearch), diluted 1:2500 in flow cytometry buffer, was added and incubated at 4° C. for 30 minutes, followed by washing with wash buffer. The fluorescence intensity was then measured on an iQue screener PLUS.
as §5

[10] = biological target: T4, human CD1a expressed on cells; assay: flow cytometry, C1R cells, 0.316 µg/ml antibody
Method: as §4, §5

[11] = biological target: T4, human CD1a expressed on cells; assay: flow cytometry, HEK-293 cells, 10 µg/ml antibody
Method: as §4
(§7) HEK-293 cells were transiently transfected with human CD1a, CD1b, CD1c or CD1d and co-transfected with human β2M.

[12] = biological target: T5, human CD1b expressed on HEK-293 cells (human, UniProt P29016 18-333; P61769 21-119); assay: flow cytometry, HEK-293 cells, 10 µg/ml antibody
T5 construct: also called HEK - CD1b
Method: as §4, §7

[13] = biological target: T6, human CD1c expressed on HEK-293 cells (human, UniProt P29017 18-333; P61769 21-119); assay: flow cytometry, HEK-293 cells, 10 µg/ml antibody
T6 construct: also called HEK - CD1c
Method: as §4, §7

[14] = biological target: T7, human CD1d expressed on HEK-293 cells (human, UniProt P15813 20-335; P61769 21-119); assay: flow cytometry, HEK-293 cells, 10 µg/ml antibody
T7 construct: also called HEK - CD1d
Method: as §4, §7

[15] = biological target: T4, human CD1a expressed on cells; assay: flow cytometry, MOLT4 cells, 0.316 µg/ml antibody
Method: as §6, §5

[16] = biological target: T4, human CD1a expressed on cells; assay: flow cytometry, HEK-293 cells, 31.6 µg/ml antibody
Method: as §4, §7

[17] = biological target: T5, human CD1b expressed on HEK-293 cells; assay: flow cytometry, HEK-293 cells, 31.6 µg/ml antibody
Method: as §4, §7

[18] = biological target: T6, human CD1c expressed on HEK-293 cells; assay: flow cytometry, HEK-293 cells, 31.6 µg/ml antibody
Method: as §4, §7

[19] = biological target: T7, human CD1d expressed on HEK-293 cells; assay: flow cytometry, HEK-293 cells, 31.6 µg/ml antibody
Method: as §4, §7

[20] = biological target: Cynomolgus monkey CD1a expressed on HEK-293 cells (Cynomolgus monkey, UniProt A0A2K5VQ68 17-326); assay: flow cytometry, HEK-293 cells, 0.01 µg/ml antibody
Sequence of Cynomolgus monkey CD1a expressed on HEK-293 cells (A0A2K5VQ68 entry or part of it): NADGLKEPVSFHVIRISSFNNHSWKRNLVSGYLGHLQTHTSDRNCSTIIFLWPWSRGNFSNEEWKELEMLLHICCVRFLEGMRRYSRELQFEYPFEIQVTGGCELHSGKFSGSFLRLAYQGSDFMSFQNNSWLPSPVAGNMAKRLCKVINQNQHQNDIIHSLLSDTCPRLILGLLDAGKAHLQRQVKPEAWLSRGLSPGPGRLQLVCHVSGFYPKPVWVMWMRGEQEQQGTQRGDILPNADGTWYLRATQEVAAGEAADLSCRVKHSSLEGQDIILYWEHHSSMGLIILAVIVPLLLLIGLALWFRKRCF
Method: as §4, §5

[21] = biological target: T4, human CD1a expressed on cells; assay: flow cytometry, HEK-293 cells, 0.0316 µg/ml antibody
Method: as §4, §7

[22] = biological target: T5, human CD1b expressed on HEK-293 cells; assay: as above
Method: as §4, §7

[23] = biological target: T6, human CD1c expressed on HEK-293 cells; assay: as above
Method: as §4, §7

[24] = biological target: T7, human CD1d expressed on HEK-293 cells; assay: as above
Method: as §4, §7

[25] = biological target: T3, human CD1a protein (pool B); assay: ELISA, 0.1 µg/ml antibody
Method: as §1, §3

Binder	Optical Density (OD) [1] [OD]	Optical Density (OD) [2] [OD]	Optical Density (OD) [3] [OD]	Optical Density (OD) [4] [OD]	Optical Density (OD) [5] [OD]	Optical Density (OD) [6] [OD]	Fluorescence Intensity Geomean (normalized to background) [7] [fold over background]	Fluorescence Intensity Geomean (normalized to background) [8] [fold over background]	Fluorescence Intensity Geomean (normalized to background) [9] [fold over background]	Fluorescence Intensity Geomean (normalized to background) [10] [fold over background]	Fluorescence Intensity Geomean (normalized to background) [11] [fold over background]	Fluorescence Intensity Geomean (normalized to background) [12] [fold over background]	Fluorescence Intensity Geomean (normalized to background) [13] [fold over background]	Fluorescence Intensity Geomean (normalized to background) [14] [fold over background]	Fluorescence Intensity Geomean (normalized to background) [15] [fold over background]	Fluorescence Intensity Geomean (normalized to background) [16] [fold over background]	Fluorescence Intensity Geomean (normalized to background) [17] [fold over background]	Fluorescence Intensity Geomean (normalized to background) [18] [fold over background]	Fluorescence Intensity Geomean (normalized to background) [19] [fold over background]	Fluorescence Intensity Geomean (normalized to background) [20] [fold over background]	further results
B1	1.79	0.94	1.4	1.4	1.24	0.81	8.3	4.8	33	29.7	15.7	1.1	1	1	27.1	10.9	1.1	1	1.1	1.2	Fluorescence Intensity Geomean (normalized to background) [21]: 8.9 fold over background; Fluorescence Intensity Geomean (normalized to background) [22]: 1 fold over background; Fluorescence Intensity Geomean (normalized to background) [23]: 1 fold over background; Fluorescence Intensity Geomean (normalized to background) [24]: 1 fold over background
B2	0.78	0.43	1.27	1.33	1.28	1.25	2.3	0.9	13.5	19	13.7	1.1	0.9	1	15.2	8.2	1	0.9	1	1.7	Optical Density (OD) [25]: 1.36 OD; Fluorescence Intensity Geomean (normalized to background) [21]: 24.9 fold over background; Fluorescence Intensity Geomean (normalized to background) [22]: 0.9 fold over background; Fluorescence Intensity Geomean (normalized to background) [23]: 1 fold over background; Fluorescence Intensity Geomean (normalized to background) [24]: 0.9 fold over background
B3	1.44	0.69	1.27	1.35	1.32	1.1	11.7	7.3	31.2	28.8	11.1	1.1	1	1.1	27.3	6.3	1	1	1	8.9	Optical Density (OD) [25]: 1.06 OD; Fluorescence Intensity Geomean (normalized to background) [21]: 11.1 fold over background; Fluorescence Intensity Geomean (normalized to background) [22]: 1 fold over background; Fluorescence Intensity Geomean (normalized to background) [23]: 1 fold over background; Fluorescence Intensity Geomean (normalized to background) [24]: 1 fold over background
